Laboratory results taken from article PMC8111768.

Columns and labels:
[1] = molecular target: VIC16 human IgG1 (wild type VIC16-human IgG1 REFORMab) (mouse | human); experiment: BLI
[2] = molecular target: T1, VIC16 human IgG1 (wild type VIC16-human IgG1 REFORMab) (mouse | human); experiment: BLI; remark: listed apart in the source
[3] = molecular target: T1, VIC16 human IgG1 (wild type VIC16-human …); experiment: SPR; details: remark: other sources report otherwise
[4] = molecular target: VIC16 REFORMab EFTEA (G236A/S267E/H268F/S324T/I332E) (mouse | human); experiment: SPR; details: remark: other sources report otherwise
[5] = molecular target: VIC16 REFORMab KWES (printed K236W/E333S) (mouse | human); experiment: SPR; details: remark: other sources report otherwise
[6] = molecular target: VIC16 REFORMab SDIEALGA (G236A/S239D/A330L/I332E) (mouse | human); experiment: SPR; details: remark: other sources report otherwise

Row | Binder | Kd [2] | Kd [3] | further results
1 | recombinant murine FcγRI (receptor) EVVNATKAVITLQPPWVSIFQKENVTLWCEGPHLPGDSSTQWFINGTAVQISTPSYSIPEASFQDSGEYRCQIGSSMPSDPVQLQIHNDWLLLQASRRVLTEGEPLALRCHGWKNKLVYNVVFYRNGKSFQFSSDSEVAILKTNLSHSGIYHCSGTGRHRYTSAGVSITVKELFTTPVLRASVSSPFPEGSLVTLNCETNLLLQRPGLQLHFSFYVGSKILEYRNTSSEYHIARAEREDAGFYWCEVATEDSSVLKRSPELELQVLGPQSSAP |  |  | Kd [1]: 0.08 µM
2 | recombinant murine FcγRIV, A0A0B4J1G0 21-249 (receptor, modifications not checked) GLQKAVVNLDPKWVRVLEEDSVTLRCQGTFSPEDNSIKWFHNESLIPHQDANYVIQSARVKDSGMYRCQTALSTISDPVQLEVHMGWLLLQTTKWLFQEGDPIHLRCHSWQNRPVRKVTYLQNGKGKKYFHENSELLIPKATHNDSGSYFCRGLIGHNNKSSASFRISLGDPGSPSMFPPWHQ | 0.24 µM |  | 
3 | recombinant human FcγR2A, P12318 34-317 (receptor, modifications not checked) QAAAPPKAVLKLEPPWINVLQEDSVTLTCQGARSPESDSIQWFHNGNLIPTHTQPSYRFKANNNDSGEYTCQTGQTSLSDPVHLTVLSEWLVLQTPHLEFQEGETIMLRCHSWKDKPLVKVTFFQNGKSQKFSHLDPTFSIPQANHSHSGDYHCTGNIGYTLFSSKPVTITVQVPSMGSSSPMG |  | 30 µM | 
4 | recombinant murine FcγRIIb, P08101 30-330 (receptor, modifications not checked) THDLPKAVVKLEPPWIQVLKEDTVTLTCEGTHNPGNSSTQWFHNGRSIRSQVQASYTFKATVNDSGEYRCQMEQTRLSDPVDLGVISDWLLLQTPQLVFLEGETITLRCHSWRNKLLNRISFFHNEKSVRYHHYSSNFSIPKANHSHSGDYYCKGSLGRTLHQSKPVTITVQGPKSSRSLP | 14.9 µM |  | 
5 | recombinant murine FcγRIII, P08508 31-261 (receptor, modifications not checked) ALPKAVVKLDPPWIQVLKEDMVTLMCEGTHNPGNSSTQWFHNGRSIRSQVQASYTFKATVNDSGEYRCQMEQTRLSDPVDLGVISDWLLLQTPQRVFLEGETITLRCHSWRNKLLNRISFFHNEKSVRYHHYKSNFSIPKANHSHSGDYYCKGSLGSTQHQSKPVTITVQDPATTSSISLVWYHT | 2.83 µM |  | 
6 | recombinant human FcγR2B, P31994 43-310 (receptor, modifications not checked) TPAAPPKAVLKLEPQWINVLQEDSVTLTCRGTHSPESDSIQWFHNGNLIPTHTQPSYRFKANNNDSGEYTCQTGQTSLSDPVHLTVLSEWLVLQTPHLEFQEGETIVLRCHSWKDKPLVKVTFFQNGKSKKFSRSDPNFSIPQANHSHSGDYHCTGNIGYTLYSSKPVTITVQAP |  | 23 µM | Kd [4]: 1.2 µM; Kd [5]: 224 µM; Kd [6]: 21 µM
